Assays:
cynomolgus monkey C5 [1] = molecular target: T1, cynomolgus monkey C5 (cynomolgus monkey, limits assumed); assay: Biacore T200, 37 C, kd from the dissociation phase only, association at pH 7.4 and dissociation at pH 5.8
T1 construct: also called recombinant cynomolgus monkey C5
T1 chain 1: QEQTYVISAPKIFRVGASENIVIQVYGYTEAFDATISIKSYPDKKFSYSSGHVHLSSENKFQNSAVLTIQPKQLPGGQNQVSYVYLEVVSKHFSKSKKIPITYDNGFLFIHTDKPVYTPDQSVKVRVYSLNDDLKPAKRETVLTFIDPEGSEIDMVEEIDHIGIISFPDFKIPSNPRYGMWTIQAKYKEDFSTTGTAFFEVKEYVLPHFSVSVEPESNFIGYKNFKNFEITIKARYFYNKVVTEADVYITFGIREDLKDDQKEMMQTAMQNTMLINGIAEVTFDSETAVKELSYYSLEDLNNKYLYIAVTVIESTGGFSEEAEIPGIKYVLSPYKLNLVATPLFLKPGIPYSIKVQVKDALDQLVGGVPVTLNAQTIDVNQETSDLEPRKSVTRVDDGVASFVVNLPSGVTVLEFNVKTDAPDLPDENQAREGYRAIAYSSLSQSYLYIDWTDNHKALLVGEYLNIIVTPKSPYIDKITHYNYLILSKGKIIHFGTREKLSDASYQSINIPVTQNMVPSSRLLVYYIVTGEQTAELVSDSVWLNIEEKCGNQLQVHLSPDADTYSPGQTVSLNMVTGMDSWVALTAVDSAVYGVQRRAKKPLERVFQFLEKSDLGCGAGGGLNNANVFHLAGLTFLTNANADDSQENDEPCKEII
T1 chain 2: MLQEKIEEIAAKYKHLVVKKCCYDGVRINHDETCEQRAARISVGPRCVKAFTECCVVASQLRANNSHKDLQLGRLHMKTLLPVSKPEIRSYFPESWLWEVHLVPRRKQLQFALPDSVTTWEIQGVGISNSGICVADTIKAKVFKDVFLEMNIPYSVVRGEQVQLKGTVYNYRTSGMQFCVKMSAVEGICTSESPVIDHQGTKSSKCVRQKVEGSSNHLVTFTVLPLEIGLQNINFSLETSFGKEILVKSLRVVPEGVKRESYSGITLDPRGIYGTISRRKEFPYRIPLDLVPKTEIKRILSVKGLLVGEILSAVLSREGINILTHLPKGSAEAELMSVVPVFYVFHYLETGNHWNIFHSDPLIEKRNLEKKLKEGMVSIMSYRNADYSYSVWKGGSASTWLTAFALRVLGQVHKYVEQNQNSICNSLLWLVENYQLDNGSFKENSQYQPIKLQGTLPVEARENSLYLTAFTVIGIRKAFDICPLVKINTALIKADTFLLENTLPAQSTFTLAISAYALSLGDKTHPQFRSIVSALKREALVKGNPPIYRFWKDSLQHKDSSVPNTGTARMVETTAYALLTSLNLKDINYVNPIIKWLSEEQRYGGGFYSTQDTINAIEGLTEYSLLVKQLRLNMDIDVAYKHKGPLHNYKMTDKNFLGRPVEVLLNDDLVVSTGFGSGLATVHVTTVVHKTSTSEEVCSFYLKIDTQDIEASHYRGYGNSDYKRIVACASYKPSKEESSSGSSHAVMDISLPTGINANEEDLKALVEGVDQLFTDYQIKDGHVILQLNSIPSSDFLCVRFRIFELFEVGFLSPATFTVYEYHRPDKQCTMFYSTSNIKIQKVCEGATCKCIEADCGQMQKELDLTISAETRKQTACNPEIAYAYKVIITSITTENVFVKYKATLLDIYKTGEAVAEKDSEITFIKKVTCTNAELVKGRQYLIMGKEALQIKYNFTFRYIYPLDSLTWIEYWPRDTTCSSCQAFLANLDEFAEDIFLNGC
Method: (§1) Anti-C5 antibodies were captured on an immobilized molecule, and then human C5 was injected. The running buffers used were ACES pH 7.4 and pH 5.8 (20 mM ACES, 150 mM NaCl, 1.2 mM CaCl₂, 0.05% Tween 20). Kinetics parameters at both pH conditions were determined by fitting the sensorgrams with 1:1 binding -RI (without bulk effect adjustment) model using Biacore T200 Evaluation software, version 2.0 (GE Healthcare).

human C5 [2] = molecular target: T2, human C5 (human, UniProt P01031 19-673; P01031 678-1676, Beta and alpha chains are disulfide-linked and the protein is glycosylated.); assay: Biacore T200, 37 C, kd from the dissociation phase only, dissociation at pH 7.4
T2 construct: Either in-house recombinant C5 or plasma derived C5 (CALBIOCHEM) was used; also called recombinant human C5; plasma derived human C5
Method: as §1
(§2) These variants were examined for the binding against human C5.

cynomolgus monkey C5 [3] = molecular target: T1, cynomolgus monkey C5; assay: Biacore T200, captured antibody, cynomolgus monkey C5 injected, pH 7.4, 37 C, 1:1 fit
Method: as §1

human C5 [4] = molecular target: T2, human C5; assay: Biacore T200, 37 C, kd from the dissociation phase only, association at pH 7.4 and dissociation at pH 5.8
Method: as §1, §2

human C5 [5] = molecular target: T2, human C5; assay: Biacore T200, captured antibody, recombinant human C5 injected, pH 7.4, 37 C, 1:1 fit
Method: as §1, §2

cynomolgus monkey C5 [6] = molecular target: T1, cynomolgus monkey C5; assay: Biacore T200, 37 C, kd from the dissociation phase only, dissociation at pH 7.4
Method: as §1

B1: optimized 20//18 (bispecific antibody, V domains shown)
VH 1: QVQLQESGPGLVKPSETLSLTCAVSGYSISSGYYWGWIRQPPGKGLEWIGSIYHSGSTYYNKKLKSRVTISVDTSKNQFSLKLSSVTAADTAVYYCARHDPTWYHHGYFDYWGQGTLVTVSS
VH 2: QVQLVQSGAEVKKPGSSVKVSCKASGGTFSSYSISWVRQAPGQGLEWMGGIIPIFGTANYAQKFQGRVTITADESTSTAYMELSSLRSEDTAVYYCARQLYGYYELDIWGQGTLVTVSS
VL: DIQMTQSPSSLSASVGDRVTITCRASQSIHNDLAWYQQKPGKAPKLLIYEASELQSGVPSRFSGSGSGTDFTLTISSLQPEDFATYYCQHYSSYPYTFGQGTKVEIK
notes: Bispecific IgG with the common light chain 20L233
Binder B1 has a koff (cynomolgus monkey C5 [1]) of 0.107 s⁻¹, a koff (human C5 [2]) of 0.000104 s⁻¹ and a Kd (cynomolgus monkey C5 [3]) of 0.664 nM. For the same binder, the koff (cynomolgus monkey C5 [3]) was 0.000236 s⁻¹, the kon (cynomolgus monkey C5 [3]) was 355000 M⁻¹ s⁻¹ and the koff (human C5 [4]) was 0.0594 s⁻¹. It also gave a Kd (human C5 [5]) of 0.268 nM, a koff (human C5 [5]) of 9.72e-05 s⁻¹ and a kon (human C5 [5]) of 362000 M⁻¹ s⁻¹. The koff (cynomolgus monkey C5 [6]) was 0.000224 s⁻¹.

From patent publication US20180016327A1 (Chugai, published 2018)
